The values below are quoted from earlier work in article PMC5428663, “Identification of small molecule inhibitors of Interleukin-18” (Scientific Reports, 2017).

The series concerns the target IL-18 (Homo sapiens) (UniProt Q14116).

Sequence of IL-18 (Homo sapiens) (Q14116 37-193): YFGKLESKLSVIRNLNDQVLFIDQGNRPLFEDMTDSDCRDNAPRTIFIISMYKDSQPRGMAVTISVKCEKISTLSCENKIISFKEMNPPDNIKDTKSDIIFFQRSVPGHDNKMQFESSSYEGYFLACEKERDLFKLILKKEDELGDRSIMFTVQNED
Sequence of IL-18BP (O95998 31-194): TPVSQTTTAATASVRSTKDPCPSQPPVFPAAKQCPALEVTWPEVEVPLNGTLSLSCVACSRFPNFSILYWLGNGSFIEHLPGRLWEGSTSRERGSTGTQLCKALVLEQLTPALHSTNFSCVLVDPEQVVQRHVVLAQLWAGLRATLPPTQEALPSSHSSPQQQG

As to IL-18BP (from UniProt O95998), the Kd was 0.4 nM.
